Measured values taken from patent US20040197853A1.

How the values were obtained:
[1] = target: monoclonal IgE antibody
[2] = target: IgG antibody

MTCS (enzyme)
In vitro Reactivity with IgE [1]: < 5% | In vitro Reactivity with IgG [2]: < 5%
